Experimental findings from US8663616B2, “Enzymatic peracid generation for use in oral care products” (E I du Pont de Nemours and Company, priority 2010, dated 2014) are described below.

The nature of test [1]: Two-step bleaching of coffee-tea stained bovine enamel (Example 16). The method, then: Bovine enamel incisors were prepared as indicated in Example 1. The stained enamel blocks were embedded in a 48 well plate to protect the dentin backside from solution exposure. A solution of 10 μM of each enzyme in 10 mM phosphate buffer, pH 7.2 was prepared and 500 μL of solution was incubated with each enamel substrate for 60 min. The enzyme solution was removed and each well was rinsed three times with an additional 500 μL of buffer. The enamel blocks were placed in a fresh well for the whitening process. A solution with a final concentration of 40 mM triacetin, 100 mM H2O2 in 50 mM phosphate pH 7.2 buffer was freshly prepared and 500 μL of solution was added to each enamel block. Over the course of 1 hr the enamel blocks were removed and a color measurement was obtained and then each was returned to the solution in the well plate. The whiteness index for each sample was monitored.

A short description of test [2]: Perhydrolase activity in solution, ABTS detection of peracetic acid (Example 7). The class given is biochemical. As to conditions: 10 μL of 0.625 μg/mL enzyme, triacetin, H2O2, pH 7.2, 5 min. The method, then:
(§1) The detection of peracetic acid followed the method described in Pinkernell et. al. (Analyst, 1997, 122, 567) using colorimetric detection of 2,2′-azino-bis(3-ethylbenzothiazoline(-6-sulfonate (ABTS) oxidation by peracetic acid. Following the formation of peracetic acid with the addition of triacetin and hydrogen peroxide, 90 μL of solution was added to 10 μL of 0.1 M H3PO4 in a well plate. 50 μL of 1 M acetic acid, 50 μL of 0.5 g/L ABTS and 50 μL of 0.002 g/L of KI was added. The solution was allowed to develop for 5 min. The absorbance of the solution was measured at 405 nm using a microplate reader. The peracetic acid concentration was calculated based on a standard curve developed simultaneously using peracetic acid reagent solution.
The enzyme activity in solution was measured by making a solution of 0.625 μg/mL of each enzyme in 50 mM phosphate buffer, pH 7.2. 10 μL of enzyme solution was mixed with 90 μL buffer, 30 μL of 3% triacetin in water, 30 μL of 30 mM H2O2. The solution was incubated for 5 min. A 90 μL aliquot was removed for detection via ABTS oxidation as noted above.

The nature of test [3]: T. maritima C277S/C277T constructs, peracetic acid in solution (Example 11). The class given is biochemical. As to conditions: 0.5 μM enzyme, 100 mM triacetin, 100 mM H2O2, pH 7.2, 10 min, 37° C.; no enzyme 114. Put shortly:
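Each perhydrolase at 0.5 μM incubated with 100 mM triacetin and 100 mM H2O2 in 10 mM phosphate buffer pH 7.2, 10 min at 37° C, then stopped with H3PO4. Peracetic acid quantified by ABTS/KI oxidation, absorbance at 405 nm, against a peracetic acid standard curve.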

Test [4] can be described thus: T. maritima C277S/C277T constructs, peracetic acid when bound to bovine enamel (Example 11). The class given is biochemical. To be noted: bovine enamel exposed to 10 μM enzyme, 4 washes; 100 mM triacetin, 100 mM H2O2, 30 min, 37° C.; no enzyme 570. Put shortly: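 Enamel blocks equilibrated in 10 mM potassium phosphate, pH 7.2, were incubated with 10 μM enzyme for 30 min at 37° C and washed free of unbound enzyme. Bound enzyme then reacted 30 min at 37° C with 100 mM H2O2 and 100 mM triacetin in 100 mM phosphate, pH 7.2. Peracetic acid was measured by ABTS oxidation (A405) against a standard curve; mean of 3 blocks.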

The nature of test [5]: Perhydrolase activity of enzyme bound to hydroxyapatite discs, ABTS (Example 7). In kind it is biochemical. The method, then: as §1
The perhydrolase activity of the fusions once bound to HAP discs surfaces was determined with the same ABTS method. Hydroxyapatite discs (HiMed Inc, Old Bethpage, N.Y.; 5 mm dia.×1.8 mm thick) were incubated in 20 μM enzyme solution (50 mM potassium phosphate buffer pH 7.2) for 60 min followed by 6 times of washes (50 mM potassium phosphate buffer pH 7.2). The discs with enzyme adsorbed were transferred to new wells and 200 μL of phosphate buffer (10 mM pH 7.2), 30 μL of 3% triacetin (final concentration of 0.346%) and 30 μL of 30 mM H2O2 (final concentration of 3.46 mM) were added. The solution was allowed to incubate at room temperature for 5 min. 90 μL of solution was pipetted to a new well containing 10 μL of 100 mM H3PO4. 50 μL of acetic acid, 50 μL KI, 50 μL ABTS were added as described above. The solution was developed for 5 min at room temperature and read at A405 nm.

Test [6] is described as follows: Retention of perhydrolase on hydroxyapatite (SDS-PAGE band strength). The class given is binding. As to conditions: relative to enzyme input = 1. Put shortly:
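Enzyme at 10 μM final was incubated 30 min with 0.5% hydroxyapatite nanoparticles in 10 mM phosphate pH 7.2, then centrifuged and washed three times. Input, wash supernatants and particles were run on SDS-PAGE with Coomassie-type staining; band strength scored relative to input (=1).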

Test [7] can be described thus: M. smegmatis aryl esterase constructs, peracetic acid in solution (Example 10). To be noted: 0.5 μM enzyme, 100 mM triacetin, 100 mM H2O2, pH 7.2, 30 min, 37° C.; no enzyme 158. The class given is biochemical. The method, then:
as §1
For aryl esterase constructs, the enzyme activity in solution was measured by making a 1 mL solution of 0.5 μM of each enzyme, 100 mM triacetin, and 100 mM H2O2 in 100 mM phosphate buffer, pH 7.2. The solution was mixed and incubated for 30 min, at 37° C. As described in Example 7, the reaction was stopped by removing a portion to H3PO4 and a 10 μL aliquot was removed and diluted for detection via ABTS oxidation.

Test [8] can be described thus: M. smegmatis aryl esterase constructs, peracetic acid when bound to hydroxyapatite particles (Example 10). The class given is biochemical. To be noted: 33 mg HAP particles exposed to 10 μM enzyme; 100 mM triacetin, 100 mM H2O2, 30 min, 37° C.; no enzyme 323. The method, then:
as §1
For assessment of binding and activity on hydroxyapatite, the aryl esterase enzymes were exposed to hydroxyapatite particles as described in Example 8 using 33 mg of buffer washed HAP particles (Macro-prep Ceramic Hydroxyapatite TYPE I, 80 μm size BioRad, Hercules, Calif.) using a 10 μM solution in 10 mM phosphate buffer. Following centrifugation and removal of the enzyme solution, the particles were rinsed with phosphate butter by centrifuging and removing the supernatant. A 200 μL solution containing 100 mM triacetin, 100 mM H2O2 and 100 mM phosphate buffer, pH 7.2 was added to the particles and incubated at 37° C. for 30 min. As described in Example 7, the reaction was stopped by removing a portion to H3PO4 and a 10 μL aliquot was removed diluted for detection via ABTS oxidation.

A short description of test [9]: P. fluorescens perhydrolase constructs, peracetic acid when bound to hydroxyapatite particles (Example 10). In kind it is biochemical. As to conditions: 100 mg HAP particles exposed to 20 μM enzyme; 300 mM H2O2, 1 M sodium acetate pH 5.5, 10 min, 37° C.; no enzyme 17. As for the experimental part:
as §1
For P. fluorescens constructs, the solution activity was measured by mixing a 1 mL solution containing 2 μM enzyme, 100 mM H2O2 in a 1 M sodium acetate buffer, pH 5.5. The solution was incubated at 37° C. for 30 min. As described in Example 7, the reaction was stopped by removing a portion to H3PO4 and a 10 μL aliquot was removed and diluted for detection via ABTS oxidation. For assessment of binding and activity on hydroxyapatite, the P. fluorescens enzymes were exposed to hydroxyapatite particles at 20 μM in 10 mM phosphate buffer as described in Example 8 using 100 mg of buffer washed HAP particles (Macro-prep Ceramic Hydroxyapatite TYPE I, 80 μm size BioRad, Hercules, Calif.). Following centrifugation and removal of the enzyme solution, the particles were rinsed with phosphate butter by centrifuging and removing the supernatant. A 200 μL solution containing 300 mM H2O2 in 1 M sodium acetate buffer, pH 5.5 was added to the particles and incubated at 37° C. for 10 min. As described in Example 7, the reaction was stopped by removing a portion to H3PO4 and a 10 μL aliquot was removed and diluted for detection via ABTS oxidation.

B1: EZ-5: C277S-link1-(GK)5-H6, SEQ ID NO: 428 (protein)
chain: MAFFDLPLEELKKYRPERYEEKDFDEFWEETLAESEKFPLDPVFERMESHLKTVEAYDVTFSGYRGQRIKGWLLVPKLEEEKLPCVVQYIGYNGGRGFPHDWLFWPSMGYICFVMDTRGQGSGWLKGDTPDYPEGPVDPQYPGFMTRGILDPRTYYYRRVFTDAVRAVEAAASFPQVDQERIVIAGGSQGGGIALAVSALSKKAKALLCDVPFLCHFRRAVQLVDTHPYAEITNFLKTHRDKEEIVFRTLSYFDGVNFAARAKIPALFSVGLMDNISPPSTVFAAYNYYAGPKEIRIYPYNNHEGGGSFQAVEQVKFLKKLFEKGGPGSGGAGSPGSAGGPGSGKGKGKGKGKHHHHHH
With B1, the “Whiteness Index 0 min” value in [1] (two-step: 10 μM enzyme 60 min, rinsed, then 40 mM triacetin, 100 mM H2O2, pH 7.2, before step 2) was −135.8. The molecule further registered a ΔWI in test [1] (two-step, 0 to 60 min) of 93.2. Further, the “Whiteness Index 5 min” value in test [1] (two-step, 5 min in triacetin/H2O2) is listed as −129.8. The “Whiteness Index 15 min” value in test [1] (two-step, 15 min in triacetin/H2O2) is recorded as −97.4. Besides, in test [1] (two-step, 30 min in triacetin/H2O2), the “Whiteness Index 30 min” value is given as −65.1. For the same molecule, the “Whiteness Index 45 min” value in test [1] (two-step, 45 min in triacetin/H2O2) is −49.9. Further, the “Whiteness Index 60 min” value in test [1] (two-step, 60 min in triacetin/H2O2) was −42.7. For the same molecule, the “Avg Absorbance 405 nm Background subtracted” value in test [2] is 1.658. In addition, in test [3], the “Peracetic acid (ppm) In Solution” value came to 3956 ppm. In addition, the “Peracetic acid (ppm) On Enamel” value in test [4] is 1344 ppm. The “Avg Absorbance Background subtract” value in test [5] (background = no enzyme, no HAP (0.775)) is listed as 1.379. Further, the “Avg Absorbance at 5 min” value in [5] (discs incubated in 20 μM enzyme, 6 washes, 0.346% triacetin, 3.46 mM H2O2, A405) turned out to be 2.154. The “PAA conc μM per disc” value in test [5] (enzyme bound to hydroxyapatite disc, 5 min, no enzyme control 1.2) is 49.7 μM per disc. For the same molecule, in test [5] (with addition of triacetin and hydrogen peroxide), the “activity when bound to hydroxyapatite (in words)” value is listed as “active enzymes when bound to hydroxyapatite”. Besides, in test [6] (10 μM enzyme, 0.5% hydroxyapatite, pH 7.2), the “Unbound (relative band strength)” value is 0.2. The “HAP Particles (relative band strength)” value in test [6] (enzyme retained on particles after washes) amounted to 0.7. Also, in [6], the “Wash1 (relative band strength)” value came to 0.05 and the “Wash2 (relative band strength)” value is 0.05.

B2: EZ-40: ArE-link1-DenP308-H6, SEQ ID NO: 464 (protein)
chain: MAKRILCFGDSLTWGWVPVEDGAPTERFAPDVRWTGVLAQQLGADFEVIEEGLVARTTNIDDPTDPRLNGASYLPSCLATHLPLDLVIIMLGTNDTKAYFRRTPLDIALGMSVLVTQVLTSAGGVGTTYPAPKVLVVSPPPLAPMPHPWFQLIFEGGEQKTTELARVYSALASFMKVPFFDAGSVISTDGVDGIHFTEANNRDLGVALAEQVRSLLGPGSGGAGSPGSAGGPGSDPTKPPRTPTANTSRPHHNFGSGGGGSPHHHHHH
With B2, the “Peracetic acid (ppm) In Solution” value in [7] is given as 3605 ppm. Moreover, the “Peracetic acid (ppm) On Hydroxyapatite” value in test [8] came to 2476 ppm.

B3: EZ-41: Pfl-link1-H6, SEQ ID NO: 465 (protein)
chain: MSTFVAKDGTQIYFKDWGSGKPVLFSHGWPLDADMWEYQMEYLSSRGYRTIAFDRRGFGRSDQPWTGNDYDTFADDIAQLIEHLDLKEVTLVGFSMGGGDVARYIARHGSARVAGLVLLGAVTPLFGQKPDYPQGVPLDVFARFKTELLKDRAQFISDFNAPFYGINKGQVVSQGVQTQTLQIALLASLKATVDCVTAFAETDFRPDMAKIDVPTLVIHGDGDQIVPFETTGKVAAELIKGAELKVYKDAPHGFAVTHAQQLNEDLLAFLKRGPGSGGAGSPGSAGGPGSHHHHHH
As for B3, the “Peracetic acid (ppm) On Hydroxyapatite” value in [9] is 18 ppm.

B4: EZ-37: ArE-link1-H6, SEQ ID NO: 461 (protein)
chain: MAKRILCFGDSLTWGWVPVEDGAPTERFAPDVRWTGVLAQQLGADFEVIEEGLVARTTNIDDPTDPRLNGASYLPSCLATHLPLDLVIIMLGTNDTKAYFRRTPLDIALGMSVLVTQVLTSAGGVGTTYPAPKVLVVSPPPLAPMPHPWFQLIFEGGEQKTTELARVYSALASFMKVPFFDAGSVISTDGVDGIHFTEANNRDLGVALAEQVRSLLGPGSGGAGSPGSAGGPGSHHHHHH
On to B4, for which, in test [8], the “Peracetic acid (ppm) On Hydroxyapatite” value is on record as 927 ppm.

B5: EZ-39: ArE-link1-(GK)5-H6, SEQ ID NO: 463 (protein)
chain: MAKRILCFGDSLTWGWVPVEDGAPTERFAPDVRWTGVLAQQLGADFEVIEEGLVARTTNIDDPTDPRLNGASYLPSCLATHLPLDLVIIMLGTNDTKAYFRRTPLDIALGMSVLVTQVLTSAGGVGTTYPAPKVLVVSPPPLAPMPHPWFQLIFEGGEQKTTELARVYSALASFMKVPFFDAGSVISTDGVDGIHFTEANNRDLGVALAEQVRSLLGPGSGGAGSPGSAGGPGSGKGKGKGKGKHHHHHH
B5: in [7], the “Peracetic acid (ppm) In Solution” value stood at 1366 ppm. The “Peracetic acid (ppm) On Hydroxyapatite” value in [8] is listed as 3553 ppm.
